Patent US20030119716A1, “Methods for screening, treating and diagnosing G-protein coupled receptor-related disorders and compositions thereof” (Wyeth, priority 2001, published 2003)

How the values were obtained:
Gαi1 = test: cell-based or functional assay
Gαq/i chimera = test: cell-based or functional assay

Row | inhibition of SRE activation (SRE-luciferase reporter, all quinpirole concentrations, CHO-D2R cells) (Gαi1) [%] | reduction in quinpirole-stimulated SRE activation (SRE-luciferase reporter, 100 nM quinpirole, CHO-D2R cells) (Gαi1) [%] | reduction in SRE activation (SRE-luciferase reporter, CHO-D2R cells) (Gαq/i chimera) [%] | attenuation of SRE activation (SRE-luciferase reporter, CHO-D2R cells co-transfected with Gαi1) (Gαi1) [%] | Substance
1 | > 80 | 85 | 60 |  | human RGS4 (from UniProt P49798 1-205)
2 |  |  |  | 25 to 30 | human RGSz1 (from UniProt O76081 1-388)
